The values that follow come from the DeepSol protein solubility set.

This data set can be described thus: soluble on expression in E. coli; label from the status in PepcDB or PDB records.
Take “MMKRQLHRMRQLAQTGSLGRTPETAEFLGEDLLQVEQRLEPAKRAAHNIHKRLQACLQGQSGADMDKRVKKLPLMALSTTMAESFKELDPDSSMGKALEMSCAIQNQLARILAEFEMTLERDVLQPLSRLSEEELPAILKHKKSLQKLVSDWNTLKSRLSQATKNSGSSQGLGGSPGSHSHTTMANKVETLKEEEEELKRKVEQCRDEYLADLYHFVTKEDSYANYFIRLLEIQADYHRRSLSSLDTALAELRENHGQADHSPSMTATHFPRVYGVSLATHLQELGREIALPIEACVMMLLSEGMKKEGLFRLAAGASVLKRLKQTMASDPHSLEEFCSDPHAVAGALKSYLRELPEPLMTFDLYDDWMRAASLKEPGARLQALQEVCSRLPPENLSNLRYLMKFLARLAEEQEVNKMTPSNIAIVLGPNLLWPPEKEGDQAQLDAASVSSIQVVGVVEALIQSADTLFPGDINFNVSGLFSAVTLQDTVSDRLASEELPSTAVPTPATTPAPAPAPAPAPAPALASAATKERTESEVPPRPASPKVTRSPPETAAPVEDMARRSPRGATGR”: the “soluble on expression in E. coli” value is “soluble”.

With “MSVPPGSIIVSDWHRCPDSREFFSKILHKKRRRKFGKTGVGKSALAARLAGLDLPKMHYETTGIETTVVFWPVRLKESGRVLFFRFELWDCGESAMRRFDHMLLSCKEKVDAILFLFSFTDRGSFDDLTNQISRITEPSDRVVKLVVGTKRDGERRDTFSGGVGSSGFPCGR”, the “soluble on expression in E. coli” value is on record as “not soluble”.

With “MINIETPTYYTATKKYELSFPSLETDLDADVVVIGGGFSGINTALELAEHGITDIVVLEARHLGFGGTGRNGGQIMAGIGHDLEKIRKDVGEDGLRAIFEISDLGADIIKGRIEKYAIDADFCHGYGYMGFNARQAKTLQAWEKEFRSLGSPHEIRYLHGAEVRQIIGSDAYGSALLHMGGGHVHSLNLLLGEAKALAGLGARIFEYSPALEVQYGERIRVRTAKGSVTANKLLWACDSFLNRLEPELHRTTINTYAFQMMTEPLPDELIQRISPIRGAYSDIRPVIDYYRVTNENRLLFGAATPFVERIPGDLKAWNRKLMLKIFPYLEHVRIDLAWGGPMACSANLFPQIGSLSGRPNAFFVQGYSGFGVTPSHIVCKVLAEGMSEGSARYDLLSSVRRIPIHGKDHFRPLLLSAGKTWHQLSGYWNGRR”, the “soluble on expression in E. coli” value is recorded as “not soluble”.

For the sequence “MNLFQNLALKYSHTMMEKSLQKGFNVELLKQPEEKIPKQDKSYMLYAHVPFCHTFCPYCSFHKYYYDENLAKVYFQNLREEIKIMKNKGFDFTSMYVGGGTTLIDEEELLKTLELCKKLFNIKEISCESDPNHIDPNKLSMFKGIIDRLSCGIQSFDDETLKKVARYNKFGSSKELQEKISKALGILPIFSIDLIFNLPGQNEKQLLNDLEIAKNLAPQQITTYPLMKSNLTKDNIAKSLGVSIKDNEFTYYQIIREFFKDYTQNNGWSFSLEKNKLNDEYVSSHHEYLGVGSGAFSFLDGELLINAFNLNDYAKFIQEKQNANIAKACFDKKEIIKYVFLTGIFSGKIEIDKFNKTLNCNLEKELFIELLGLKTSGAIIKDQNALIATEFGQYLFVVLMKDFYTGMDLVRAVFRDDKRLKNKDYIDIMKENIDPLNSASMEFKAETN”, the “soluble on expression in E. coli” value is “not soluble”.

In the case of “MDIPVFTMVGEWKCKEGEWKFEPKEGIFGRCVRVQETMTYTDFVRTLREAFSLKSTEINPIISYWMLGEMSVLIDTKHPPVYIDSQMGLETFFFGSWWVSFSQLVRLFQ”, the “soluble on expression in E. coli” value was “not soluble”.

For “MAESVEKLEDGIVRSAEQVSSQIRAAKDAIASVIFGQDRVIENTLVTILSGGHALLIGVPGLAKTKLVETLGVTLGLDAKRIQFTPDLMPSDILGAEVLDESTAGKRSFRFIAGPVFAQLLMADEINRASPRTQSALLQAMQEQHITVAGARHDLPKPFHVLATQNPLEQEGTYPLPEAQLDRFLMEIDVDYPDRDAERRILFETTGAEETLAKGSMTADALITAQRLIRRLPVGDSVVEAILSLVRSARPGPDSGETGKFIAWGPGPRASQSLMLAVRARALIDGRLAPSVDDVLDLAEPILKHRMALTFQARAEGRTIPDVIRQLKTRIGLEHHHHHH”, the “soluble on expression in E. coli” value is reported as “soluble”.

Regarding “MGMENYNPPQEPWLVILYQDDHIMVVNKPSGLLSVPGRLEEHKDSVMTRIQRDYPQAESVHRLDMATSGVIVVALTKAAERELKRQFREREPKKQYVARVWGHPSPAEGLVDLPLICDWPNRPKQKVCYETGKPAQTEYEVVEYAADNTARVVLKPITGRSHQLRVHMLALGHPILGDRFYASPEARAMAPRLLLHAEMLTITHPAYGNSMTFKAPADFLEHHHHHH”, the “soluble on expression in E. coli” value is recorded as “soluble”.

Turning to “MLLPKFLLLTAFLEFASAICADSNDQEIKGFCFKFVTQQLTFTDARTWCHLKNPVGPSYLAYVPSQDTSTYLAFYARSAFGADAEVFWIGLSRNASSGSLSWDNGLPVAYTNFGTNVGKNYFTESISNTKWDTLGDGDLNFFVCSYAPIVNSTTMTSITGTTKRMTTTTIEKLNCKPGDHQIILFAYSNDLAPSVVTDALYYSSLSSQSVTYAVSRFDLRQPEDIQYFSDYSLFSSYVSSHLPDYTLGFEEATTGSNVFEVINKFYDNTQATCGSNLIILSKRYPNTADVSNIVLKVRKSQGMVNFLASHAPSGGTVSQGLYDLCSLTNGIYSIGRDSSFSNMIESMPIRYRYAIYADNPKVSGQGSQTLASMSVPADGTYYLSMMLQNHTPVNTTQSVLLHWYSPYSRYSSTASVHGLSFETNNNGANSEILDAAIYNVTLDFVYFTSETMQIRFYGTSTDHWLPYAD”, the “soluble on expression in E. coli” value is on record as “not soluble”.

Turning to “MGSDKIHHHHHHLAARNFPPVLPFSPRKIAVLHAKAVGDFIVILPALDAIKRTYPEAELILLAKPWVKEFFSGRPSPVDRVLSLPPLAGVNDPVESKGRVPSTGSGVYPVEVELFCQAMQGEKLDVVIHMQGDGKSVNPFINKFAARVTAGMCNPPAESLDRSIPYVHYQSEVLRNLEVASLIGARTTSTGFEPRIEVTESDEQETESVRQTIKGKPYVVIHPGADDIRRVWPAVRFAEAADCLLEKGYAVVVTGTPKEEERVATVIRAMSRPAIPCTRLGLCGLAALLQHSALVISNDTGPLHLARAVGARTVGIYWAPNILNWGPLSRDRHRLAIGWQLECPQCGIRPVSPWPFQPQTSDCSHPYSFVESVPVAEVLALATELLGLTTEH”, the “soluble on expression in E. coli” value is listed as “not soluble”.

With “MGSDKIHHHHHHMPMIHYIFNREIVPPAIEPLLKQLFSGQNFTQSDRLLGYSKGRGITWFLNTQAELGINIVLRHYYRGGLFGKVVKDRYLFQRIDQTRAVQEFNLLTQMQRWHLPVPRPIAVEINKQSIFYRAKIMLEKIEHTQDLSKLLQTQPLVAEQYQQLGQLIRQLHDHQIHHSDLNIHNILLDDNGKFWLIDFDKCCIKAGEEWKQANLNRLLRSFHKEQTRLGIQFHQQNWQSLLTGYQQHNQGDNR”, the “soluble on expression in E. coli” value is given as “not soluble”.

“MEALNKKLFRLNSKEKIQKSTGTFVPDLPNGSFLKENGSMELLNDYFFKNKDIYISKHNRFADYPYHTHQFLELNYMYSGSSEQVIEGNKETLHEGELLLLDSACHHSIKATGEKDILINILFRDQQISLEWLTSIKKKNSLLFDFLLHSSVSEQSLKKYIIFQSAQIPHIQQFLNQIITEYFLEEEFSSRIITLYLPILFTELVRKCDTYLADDLTSAQSSTTSTMLEVIKLIESNYRTITLTSAADTLGYNKNYLSNFIKKNTNFTFTELVNKQKMLAANLLIETTSTPIELIIEKVGFSNKTYFYSLYKKTFNLLPNEVRNKK”: the “soluble on expression in E. coli” value is reported as “not soluble”.

Turning to “MATDSWALAVDEQEAAAESLSNLHLKEEKIKPDTNGAVVKTNANAEKTDEEEKEDRAAQSLLNKLIRSNLVDNTNQVEVLQRDPNSPLYSVKSFEELRLKPQLLQGVYAMGFNRPSKIQENALPLMLAEPPQNLIAQSQSGTGKTAAFVLAMLSQVEPANKYPQCLCLSPTYELALQTGKVIEQMGKFYPELKLAYAVRGNKLERGQKISEQIVIGTPGTVLDWCSKLKFIDPKKIKVFVLDEADVMIATQGHQDQSIRIQRMLPRNCQMLLFSATFEDSVWKFAQKVVPDPNVIKLKREEETLDTIKQYYVLCSSRDEKFQALCNLYGAITIAQAMIFCHTRKTASWLAAELSKEGHQVALLSGEMMVEQRAAVIERFREGKEKVLVTTNVCARGIDVEQVSVVINFDLPVDKDGNPDNETYLHRIGRTGRFGKRGLAVNMVDSKHSMNILNRIQEHFNKKIERLDTDDLDEIEKIAN”, the “soluble on expression in E. coli” value was “soluble”.

For the sequence “MSLVRIKDIALKAKVSSATVSRILNEDESLSVAGETRQRVINIAEELGYQTVAKRRKSRGQKQRAQPLIGVLSCLSPDQERQDPYFSSIRKGIEKECFEQEIFITNSIHLGSFQEHIFRELDGVIVIGRVHDEAVKHISGRLEHAVFINHSPDPQAYDSIGIDFESASRQAIDHLFDLGYKRLGYIGGQEKEHTLKDGQSIRRTIEDKRLTAFLESAAPQPEHVLIGEYSMREGYRLMKKAIDQGHLPEAFFIASDSMAIGALKALQEAGLQVPRDTAIVSFNGIEEAEFASTPLTTVKVYTEEMGRTGVKLLLDRLNGRTLPQHVTLPTTLIVRQSCGCTAKEGHHHHHH”, the “soluble on expression in E. coli” value was “soluble”.

Consider “MEMNVAAPAAAVAGAAAPQPGQNQTGSSYTMASLYVGDLHPDVNESILFEKFSAAGPVLSIRVCRDNATRLSLGYAYVNFQQPADAERAMDTMNFEALHGKPMRIMWSQRDPAMRRSGAGNIFIKNLDKVIDNKSIYDTFSLFGNILSCKVAIDEDGFSKGYGFVHFETEEAAQNAIQKVNGMLLAGKKVFVGKFQPRAQRNRELGETAKQFTNVYVKNFGDHYNKETLEKLFAKFGNITSCEVMTVEGKSKGFGFVAFANPEEAETAVQALHDSTIEGTDLKLHVCRAQKKSERHAELKKKHEQHKAERMQKYQGVNLYVKNLDETVDDDGLKKQFESYGNITSAKVMTDENGRSKGFGFVCFEKPEEATSAVTEMNSKMVCSKPLYVAIAQRKEDRRAQLASQYMQRLASMRMHGNVPGAAMYNPTQPGPGYYVANPMQQQRNFAGGQQMVRPGGRWGMQNQYPVQNQYMMAQGPGVYQNRMGRPQNQQGGPRGPPQQYNQVAQGGVRMQGPPRTQNPGVQQQNVPRPPQQQQQQRPAPTGPKAPPQPYQAYQQRPQGIVIGGQEPLTSAMLAAAAPQEQKQLLGERIYALIEKLYPGHKDAGKITGMMLEIDNSELIMMLQDSELFRSKVDEAASVLVSAQKQ”, for which the “soluble on expression in E. coli” value was “not soluble”.

Take “MVTSEQLLFLEAWRAVDRAYVDKSFNGQSWFKLRETYLKKEPMDRRAQTYDAIRKLLAVLDDPFTRFLEPSRLAALRRGTAGSVTGVGLEITYDGGSGKDVVVLTPAPGGPAEKAGARAGDVIVTVDGTAVKGLSLYDVSDLLQGEADSQVEVVLHAPGAPSNTRTLQLTRQKVTINPVTFTTCSNVAAAALPPGAAKQQLGYVRLATFNSNTTAAAQQAFTELSKQGVAGLVLDIRNNGGGLFPAGVNVARMLVDRGDLVLIADSQGIRDIYSADGNSIDSATPLVVLVNRGTASASEVLAGALKDSKRGLIAGERTFGKGLIQTVVDLSDGSGVAVTVARYQTPAGVDINKIGVSPDVQLDPEVLPTDLEGVCRVLGSDAAPRLFG”: the “soluble on expression in E. coli” value was “soluble”.

“MTLPPTSIADRIARAQPAFSRTQHRMAEYVLAHQFRVATMTIDEFAVAVGVSVATANRFARVLELPGYPQFRAELARGFESALEPVEKLRIELAHSASAAQVFAATLQEDIHNAQMTLQALDAGACERAVEAILNAERVFIIGFGTSGFLAGLLQRGLCMHLHAVESLAGPGGVSHAARQMSRMTSRDLVIALAFPRYLADTVTLANAAKLAGVPVLVLTDKPTSPLAPCATVALYAHMSRQLSSNAETAALGLIEALSAAVAHRAKNSIAAAAGVAQSVMPWLIHGEAGAGKR”: the “soluble on expression in E. coli” value was “not soluble”.
